Experimental data reported in PMC6523629.

Target: tropomyosin receptors kinase A (TrkA) (rat (endogenous in PC12)) (UniProt P35739)
Sequence of UniProt P35739 (P35739 33-799): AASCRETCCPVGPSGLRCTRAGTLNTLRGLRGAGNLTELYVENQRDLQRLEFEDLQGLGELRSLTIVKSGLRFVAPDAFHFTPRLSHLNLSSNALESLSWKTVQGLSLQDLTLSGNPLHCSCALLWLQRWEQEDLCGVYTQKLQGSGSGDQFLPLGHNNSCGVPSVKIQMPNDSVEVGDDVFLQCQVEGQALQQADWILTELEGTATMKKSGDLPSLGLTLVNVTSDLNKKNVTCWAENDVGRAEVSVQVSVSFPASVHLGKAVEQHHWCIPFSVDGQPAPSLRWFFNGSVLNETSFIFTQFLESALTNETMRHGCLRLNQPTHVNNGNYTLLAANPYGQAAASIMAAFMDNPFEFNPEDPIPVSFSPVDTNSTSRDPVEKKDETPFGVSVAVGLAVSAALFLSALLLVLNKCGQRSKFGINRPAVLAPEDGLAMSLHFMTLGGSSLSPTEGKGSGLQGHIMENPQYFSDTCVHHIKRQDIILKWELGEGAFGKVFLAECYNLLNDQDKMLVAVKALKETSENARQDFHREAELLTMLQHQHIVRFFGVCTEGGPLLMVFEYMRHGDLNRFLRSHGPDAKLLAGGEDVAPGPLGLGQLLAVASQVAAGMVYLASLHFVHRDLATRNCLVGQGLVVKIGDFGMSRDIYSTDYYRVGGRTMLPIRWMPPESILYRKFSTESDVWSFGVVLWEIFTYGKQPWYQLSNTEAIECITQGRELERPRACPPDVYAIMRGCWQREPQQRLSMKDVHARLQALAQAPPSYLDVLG

phosphorylation of TrkA (Tyr-490), Western blot, PC12 cells, 50 uM peptide with 1 uM CuSO4, 10 min, % of the untreated control [%]	phosphorylation of TrkA (Tyr-490), Western blot, PC12 cells, 50 uM peptide, 10 min, % of the untreated control [%]	Substance
825	540	NGF(1-14) (peptide)
1020	653	d-NGF(1-15) (peptide)
